We go through one molecule from patent publication US20180305449A1 (ONCOMED PHARMACEUTICALS, published 2018).

The target in experiment [1] is T1, Recombinant mouse VEGF165 (mouse, UniProt Q00731-2 27-190).
T1 construct: also called mVEGF
T1 sequence (looked up): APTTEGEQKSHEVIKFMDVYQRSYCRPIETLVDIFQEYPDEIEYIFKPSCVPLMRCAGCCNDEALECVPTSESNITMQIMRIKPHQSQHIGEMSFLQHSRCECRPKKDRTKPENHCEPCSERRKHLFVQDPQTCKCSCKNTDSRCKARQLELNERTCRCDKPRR
Briefly: SPR (Biacore 2000), biotinylated mouse VEGF165 on streptavidin chip, antibody as analyte. Here is the method: (§1) The KDs of parental antibodies anti-VEGF 219R45 (IgG format), anti-DLL4 21R79 (IgG format), anti-DLL4 21M18 (IgG format) and bispecific antibodies 219R45-MB-21M18 and 219R45-MB-21R79 were determined using a Biacore 2000 system from Biacore LifeSciences (GE Healthcare). Recombinant human DLL4-Fc or mouse DLL4-Fc proteins were immobilized on CM5 carboxyl chips using standard amine-based chemistry (NHS/EDC) and blocked with ethanolamine Recombinant human VEGF₁₆₅ or mouse VEGF₁₆₅ were biotinylated and immobilized on streptavidin chips. The antibodies were serially diluted 2-fold from 100 nM to 0.78 nM in HBS-P (0.01M HEPES pH7.4, 0.15M NaCl, 0.005% v/v Polysorbate 20). For each antibody, all 8 dilutions were sequentially injected over a specific chip. Kinetic data were collected over time and were fit using the simultaneous global fit equation to yield affinity constants (KD values) for each bispecific antibody.
A general note: Surface plasmon resonance follows binding to a sensor surface in real time, without labels.

For experiment [2], the target named is T2, Recombinant human DLL4-Fc (human, UniProt Q9NR61 27-522, limits assumed).
T2 construct: also called hDLL4; hDLL4-Fc; not shown: Fc portion
Briefly: SPR (Biacore 2000), human DLL4-Fc on CM5 chip; ratio of KDs against 219R45-MB-21M18. Here is the method: as §1

Experiment [3] has as its target T3, Recombinant human VEGF165 (human, UniProt P15692-4 27-191).
T3 construct: also called hVEGF; hVEGF165
Put plainly: SPR (Biacore 2000), biotinylated human VEGF165 on streptavidin chip, antibody as analyte. The method, then: as §1

The target in experiment [4] is T4, biotin-DLL4-hFc (UniProt Q9NR61 27-522, limits assumed, biotinylated (site not stated)).
T4 construct: not shown: human Fc (hFc)
Put plainly: Bispecific bridging ELISA: antibody pre-incubated with biotin-DLL4-hFc, captured on VEGF (ATGEN)-coated plate, streptavidin-HRP; potency relative to a reference anti-VEGF/anti-DLL4 bispecific antibody. Here is the method: (§2) VEGF (ATGEN, South Korea) was coated onto Nunc maxisorb plates at 2 ug/ml (100 μl/well) and incubated overnight at 2-8° C. Bispecific antibodies 219R45-MB-21M18, 219R45-MB-21R79, 219R45-MB-21R75, and 219R45-MB-21R83 were diluted in blocking buffer (lx PBS, 0.1% gelatin, 0.1% Polysorbate-20, pH 7.4) containing 2 μg/ml biotin-DLL4-hFc. The antibodies were serially diluted 3-fold from 500 ng/ml to 0.008 ng/ml. The antibody samples were incubated for 2 hours in blocking buffer containing the biotin-DLL4-hFc. After incubation, the antibody samples were transferred to the VEGF-coated assay plate (100 ul/well) and incubated for 2 hours. Streptavidin-HRP (Jackson ImmunoResearch, West Grove, Pa.) was added to each well and incubated for 1 hr. TMB substrate was added to the wells with a 10 minute color development and the reaction was stopped with 2M sulfuric acid. Absorbance was read at 450-650 nm and the data analyzed using the 4-parameter fit within the Softmax Pro analysis program (Molecular Devices, Sunnyvale, Calif.).
In general terms: ELISA stands for enzyme-linked immunosorbent assay.

Experiment [5] concerns the target T2, Recombinant human DLL4-Fc. Briefly: SPR (Biacore 2000), human DLL4-Fc amine-coupled on CM5 chip, antibody as analyte. Here is the method: as §1
Several additional anti-DLL4 antibodies were identified that had binding affinities intermediate to the KDs of 21M18 and 21R79. Two of these anti-DLL4 antibodies were used to produce anti-VEGF/anti-DLL4 bispecific antibodies 219R45-MB-21R75 and 219R45-MB-21R83. Using the Biacore 2000 system as described above, the KDs of the bispecific antibodies 219R45-MB-21R75 and 219R45-MB-21R83 to human DLL4 were determined.

The target in experiment [6] is T2, Recombinant human DLL4-Fc. The description is as above. The method, then: as §1
This is another data set of the same source.

For experiment [7], the target named is T4, biotin-DLL4-hFc. Briefly: Bispecific bridging ELISA (VEGF-coated plate, biotin-DLL4-hFc detection); ratio against 219R45-MB-21M18. The method, then:
as §2

Experiment [8] has as its target T4, biotin-DLL4-hFc. Briefly: bispecific sandwich ELISA: antibody pre-incubated with 2 ug/ml biotin-DLL4-hFc, captured on VEGF-coated plate, detected with streptavidin-HRP. The method, then:
FIG. 7. Bispecific antibody ELISA. Bispecific antibodies 219R45-MB-21M18, 219R45-MB-21R79, 219R45-MB-21R75, and 219R45-MB-21R83 were diluted in blocking buffer (lx PBS, 0.1% gelatin, 0.1% Polysorbate-20, pH 7.4) containing 2 μg/ml biotin-DLL4-hFc. The antibodies were serially diluted 3-fold from 500 ng/ml to 0.008 ng/ml. The antibody samples were incubated for 2 hours in blocking buffer containing the biotin-DLL4-hFc. After incubation, the antibody samples were transferred to a VEGF-coated assay plate (100 ul/well) and incubated for 2 hours. Streptavidin-HRP was added to each well and incubated for 1 hr. TMB substrate was added to the wells with a 10 minute color development and the reaction was stopped with 2M sulfuric acid. Absorbance was read at 450-650 nm and the data analyzed using the 4-parameter fit within the Softmax Pro analysis program.
as §2

Where two headings read alike, the source gives them in different places.

T2 sequence (Q9NR61 27-522 limits assumed): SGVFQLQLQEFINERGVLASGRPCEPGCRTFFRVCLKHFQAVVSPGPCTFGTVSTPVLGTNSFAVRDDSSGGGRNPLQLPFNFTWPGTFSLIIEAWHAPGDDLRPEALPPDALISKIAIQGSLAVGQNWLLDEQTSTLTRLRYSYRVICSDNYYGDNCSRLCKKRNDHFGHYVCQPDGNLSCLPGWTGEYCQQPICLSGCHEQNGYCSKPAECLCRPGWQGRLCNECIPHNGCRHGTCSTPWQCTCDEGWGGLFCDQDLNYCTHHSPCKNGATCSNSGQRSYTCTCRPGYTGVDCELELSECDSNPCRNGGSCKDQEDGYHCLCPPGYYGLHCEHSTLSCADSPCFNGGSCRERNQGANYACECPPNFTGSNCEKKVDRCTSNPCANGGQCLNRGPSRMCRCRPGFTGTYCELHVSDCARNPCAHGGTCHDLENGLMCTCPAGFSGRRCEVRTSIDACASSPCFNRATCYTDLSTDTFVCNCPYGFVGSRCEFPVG
T4 sequence (Q9NR61 27-522 limits assumed): as above

B1: anti-VEGF/anti-DLL4 bispecific antibody 219R45-MB-21R79 (bispecific antibody, human IgG2)
heavy 1: QVQLVQSGAEVKKPGASVKVSCKASGYTFTNYWMHWVRQAPGQGLEWMGDINPSNGRTSYKEKFKRRVTLSVDKSSSTAYMELSSLRSEDTAVYFCTIHYDDKYYPLMDYWGQGTLVTVSSASTKGPSVFPLAPCSRSTSESTAALGCLVKDYFPEPVTVSWNSGALTSGVHTFPAVLQSSGLYSLSSVVTVPSSNFGTQTYTCNVDHKPSNTKVDKTVERKCCVECPPCPAPPVAGPSVFLFPPKPKDTLMISRTPEVTCVVVDVSHEDPEVQFNWYVDGVEVHNAKTKPREEQFNSTFRVVSVLTVVHQDWLNGKEYKCKVSNKGLPAPIEKTISKTKGQPREPQVYTLPPSREKMTKNQVSLTCLVKGFYPSDIAVEWESNGQPENNYKTTPPMLKSDGSFFLYSKLTVDKSRWQQGNVFSCSVMHEALHNHYTQKSLSLSPGK
heavy 2: QVQLVQSGAEVKKPGASVKISCKASGYSFTAYYIHWVKQAPGQGLEWIGYIANYNRATNYNQKFKGRVTFTTDTSTSTAYMELRSLRSDDTAVYYCARDYDYDVGMDYWGQGTLVTVSSASTKGPSVFPLAPCSRSTSESTAALGCLVKDYFPEPVTVSWNSGALTSGVHTFPAVLQSSGLYSLSSVVTVPSSNFGTQTYTCNVDHKPSNTKVDKTVERKCCVECPPCPAPPVAGPSVFLFPPKPKDTLMISRTPEVTCVVVDVSHEDPEVQFNWYVDGVEVHNAKTKPREEQFNSTFRVVSVLTVVHQDWLNGKEYKCKVSNKGLPAPIEKTISKTKGQPREPQVYTLPPSREEMTKNQVSLTCLVEGFYPSDIAVEWESNGQPENNYKTTPPMLDSDGSFFLYSELTVDKSRWQQGNVFSCSVMHEALHNHYTQKSLSLSPGK
light: DIVMTQSPDSLAVSLGERATISCRASESVDNYGISFMKWFQQKPGQPPKLLIYAASNQGSGVPDRFSGSGSGTDFTLTISSLQAEDVAVYYCQQSKEVPWTFGGGTKVEIKRTVAAPSVIFPPSDEQLKSGTASVVCLLNNFYPREAKVQWKVDNALQSGNSQESVTEQDSKDSTYSLSSTLTLSKADYEKHKVYACEVTHQGLSSPVTKSFNRGEC
notes: Monovalent/bispecific IgG2 heterodimer with charge-modified CH3 domains and two identical light chains
On to B1, for which the Kd (in general, the equilibrium constant for the complex coming apart) in experiment [1] was 12.5 nM; in experiment [3], 0.68 nM; in experiment [5], 0.53 nM; in experiment [6], 0.53 nM. Further, the “fold stronger binding than 219R45-MB-21M18” value in experiment [2] is ~30 fold. In addition, in the experiment with biotin-DLL4-hFc [4], the “Relative Potency (%)” value is 501%. Also, the “fold more potent than 219R45-MB-21M18” value with biotin-DLL4-hFc [7] is ~7 fold. Moreover, the EC50 (read off the curve) (in general, the concentration at which the effect is half-maximal) with biotin-DLL4-hFc [8] is ~0.6 ng/mL.
